Test results: article PMC4660432
pKd: −log10 of the molar value. Blank lines part the entries; values can stand above or below the substance they belong to.

Tests used:
[1] = tested on: TAF1 double bromodomain (TAF1-BrD); test: EMSA; conditions: EMSA: 20 mM Tris-HCl pH 7.5, 40 mM NaCl, 0.75 mM EDTA, 1 mM DTT, 1 h at 25 C, 2.5 pmol NCP, 5% native PAGE in 0.2x TBE
[2] = biological target: K12-acetylated nucleosome core particle (human) (UniProt P04908); test: native gel or EMSA; 2.5 pmol NCP mixed with the TAF1-BrD at the indicated ratios; 20 mM Tris-HCl pH 7.5, 40 mM NaCl, 0.75 mM EDTA, 1 mM DTT; 1 hr at 25 °C; native 5% PAGE in 0.2x TBE; densitometry; dissociation constants estimated from triplicates
[3] = biological target: K16-acetylated nucleosome core particle (human) (UniProt P04908); test: as above
[4] = biological target: K5/K8-di-acetylated nucleosome core particle (human) (UniProt P04908); test: as above
[5] = biological target: K5/K8/K12/K16-tetra-acetylated nucleosome core particle (biochemical analyses; N11-thrombin-tagged H4) (human) (UniProt P04908); test: as above
[6] = biological target: unmodified nucleosome core particle (biochemical analyses; N11-thrombin-tagged H4) (human) (UniProt P04908); test: as above

Substance: H4-K5/K8-di-acetylated NCP
pKd ([1]; histone H4 K5ac, K8ac): 5.21

Substance: H4-K12ac NCP
pKd ([1]; histone H4 K12ac): 4.91

Substance: H4-K5/K8/K12/K16-tetra-acetylated NCP
pKd ([1]; histone H4 K5ac, K8ac, K12ac, K16ac): 5.41

Substance: unmodified NCP
pKd [1]: 4.71

pKd [2]: 4.91
pKd [3]: 4.88
pKd [4]: 5.21
pKd [5]: 5.41
pKd [6]: 4.71
Substance: TAF1 double bromodomain (from UniProt P21675 1-1893) (domain or fragment)

Substance: H4-K16ac NCP
pKd ([1]; histone H4 K16ac): 4.88
